# Experimental data: article PMC3289634
# Where “and” joins values, the source holds several entries; their conditions need not be identical. Equal values may be shown once.
# Key:
# Max-E47 protein chimera [1] = target: Max-E47 protein chimera (UniProt P61244); assay: AUC; sedimentation velocity, 20.0°C, 50,000 rpm, Rayleigh interference; loading concentrations 3-130 µM; 20 mM Tris pH 8.0, 0.1 M NaCl, 10 mM 2-mercaptoethanol, 5% (v/v) glycerol
# Max-E47 protein chimera [2] = target: Max-E47 protein chimera (UniProt P61244); assay: AUC; sedimentation equilibrium, 16.0°C, 14,000-35,000 rpm, Rayleigh interference; 20 mM Tris pH 8.0, 0.15 M NaCl, 10 mM 2-mercaptoethanol; loading concentrations 5-25; the constant is of dimer to monomers
# Max-E47 protein chimera [3] = target: Max-E47 protein chimera (UniProt P61244); assay: SEC; Superdex-75 column, against molecular weight markers
# [4] = target: Max-E47YF cloning variant (Max-E47-V51Y/V59F) (UniProt P61244); assay: AUC; sedimentation equilibrium, 16.0°C, 14,000-35,000 rpm, Rayleigh interference; 20 mM Tris pH 8.0, 0.15 M NaCl, 10 mM 2-mercaptoethanol; loading concentrations 5-25; the constant is of dimer to monomers
Substance,stoichiometry N (Max-E47 protein chimera [1]),stoichiometry N (Max-E47 protein chimera [2]),stoichiometry N (Max-E47 protein chimera [3]),Kd [4] [nM],stoichiometry N [4]
Max-E47 protein chimera (from UniProt P61244 22-36; P15923-2 349-400) (designed binder),2 and 4,2 and 4,2,–,–
Max-E47YF cloning variant (Max-E47-V51Y/V59F) (from UniProt P61244 22-36) (designed binder),–,–,–,< 1,2
